Assay results: patent US7951917 (Genentech, dated 2011)

Target: T1, human thrombopoietin receptor, c-Mpl (human, UniProt P40238 26-491)
T1 construct: extracellular domain; Antigen of the library panning; also called MPL (human thrombopoietin receptor tyrosine kinase ECD)
T1 sequence (looked up): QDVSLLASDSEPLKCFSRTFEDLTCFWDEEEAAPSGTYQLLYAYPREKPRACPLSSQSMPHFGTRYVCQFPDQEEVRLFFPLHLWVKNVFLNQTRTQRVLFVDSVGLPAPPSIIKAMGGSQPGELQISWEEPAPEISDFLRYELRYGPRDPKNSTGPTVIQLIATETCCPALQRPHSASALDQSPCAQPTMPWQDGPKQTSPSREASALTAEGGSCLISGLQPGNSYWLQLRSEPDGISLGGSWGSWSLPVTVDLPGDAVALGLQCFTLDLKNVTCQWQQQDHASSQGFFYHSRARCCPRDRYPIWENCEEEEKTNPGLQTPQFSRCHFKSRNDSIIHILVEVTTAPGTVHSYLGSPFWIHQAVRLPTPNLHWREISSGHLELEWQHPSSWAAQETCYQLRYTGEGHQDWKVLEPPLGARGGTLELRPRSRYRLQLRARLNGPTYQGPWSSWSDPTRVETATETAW
Assay: scFv from panning of a human scFv phage library

binding result: binds
B1: anti-Mpl scFv, 12B5 (scFv)
scFv: QVQLVQSGGGLVRPGGSLSLSCAVSGITLRTYGMHWVRQAPGKGLEWVAGISFDGRSEYYADSVQGRFTISRDSSKNTLYLQMNSLRAEDTAVYYCARGAHYGFDIWGQGTMVTVSSGGGGTGGGGSGGGGSDIQMTQSPSTLSASIGDRVTITCRASEGIYHWLAWYQQKPGKAPKLLIYKASSLASGAPSRFSGSGSGTDFTLTISSLQPDDFATYYCQQYSNYPLTFGGGTKLEIK
